Measurements reported in PMC9240080 (Nature Communications, 2022).

Biological target: SARS-CoV RBD-His8-SpyTag003 (SARS-CoV, UniProt P59594, heterogeneous N-linked glycosylation)
Assay: ELISA
Conditions: both partners purified

B1: EY6A (antibody, V domains shown)
VH: EVQLVESGGGVVQPGRSLRLSCAASAFTFSSYDMHWVRQAPGKGLEWVAVISYDGSNKYYADSVKGRFTISRDNSKNTLYLQMNSLRAEDTAVYYCAKDGGKLWVYYFDYWGQGTLVTVSS
VL: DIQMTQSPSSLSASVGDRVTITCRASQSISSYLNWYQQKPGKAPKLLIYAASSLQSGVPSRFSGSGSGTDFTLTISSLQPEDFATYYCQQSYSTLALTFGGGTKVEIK
- binding result: binds
